# Experimental data published in patent US20140289906A1, “Compositions Having Dicamba Decarboxylase Activity and Methods of Use” (priority 2013, published 2014).
# Positions count from the first letter of the chain named. Names may count otherwise.
# B1: 112 (protein)
# chain: MAQGKVALEEHFAIPETLQDSAGFVPGDYWKELVHRLLDIQDTRLKLMDAHGIETMILSLNAPAVQAIPDRRKAIEIARRANDVLAEECAKRPDRFLAFAALPLQDPDAATEELQRCVNDLGFVGALVNGFSQEGDGQTPLYYDLPQYRPFWGEVEKLDVPFYLHPRNPLPQDSRIYDGHPWLLGPTWAFAQETAVHALRLMASGLFDEHPRLNIILGHMGEGLPYMMWRIDHRVAWVKLPPRYPAKRRFMDYFNENFHITTSGNFRTQTLIDAILEIGADRILFSTDWPFENIDHASDWFNATSIAEADRVKIGRTNARRLFKLDGA
# modifications: Dicamba decarboxylase variant clone DC.4.113
# B2: 113 (protein)
# chain: B1 chain with W30L, V34F
# modifications: Dicamba decarboxylase variant clone DC.4.114
# B3: D42A: point mutation of SEQ ID NO:109 (protein)
# chain: B1 chain with V34Q, D42A
# modifications: Dicamba decarboxylase variant clone DC.4.032
# B4: L38I: point mutation of SEQ ID NO:109 (protein)
# chain: B1 chain with V34Q, L38I
# modifications: Dicamba decarboxylase variant clone DC.4.032
# B5: G52E: point mutation of SEQ ID NO:109 (protein)
# chain: B1 chain with V34Q, G52E
# modifications: Dicamba decarboxylase variant clone DC.4.032
# B6: G27A: point mutation of SEQ ID NO:109 (protein)
# chain: B1 chain with G27A, V34Q
# modifications: Dicamba decarboxylase variant clone DC.4.032
# B7: D42M: point mutation of SEQ ID NO:109 (protein)
# chain: B1 chain with V34Q, D42M
# modifications: Dicamba decarboxylase variant clone DC.4.032
# B8: D42S: point mutation of SEQ ID NO:109 (protein)
# chain: B1 chain with V34Q, D42S
# modifications: Dicamba decarboxylase variant clone DC.4.032
# B9: G327Q: point mutation of SEQ ID NO:109 (protein)
# chain: B1 chain with V34Q, G327Q
# modifications: Dicamba decarboxylase variant clone DC.4.032
# B10: G27S: point mutation of SEQ ID NO:109 (protein)
# chain: B1 chain with G27S, V34Q
# modifications: Dicamba decarboxylase variant clone DC.4.032
# B11: G27T: point mutation of SEQ ID NO:109 (protein)
# chain: B1 chain with G27T, V34Q
# modifications: Dicamba decarboxylase variant clone DC.4.032
# B12: A328D: point mutation of SEQ ID NO:109 (protein)
# chain: B1 chain with V34Q, A328D
# modifications: Dicamba decarboxylase variant clone DC.4.032
# B13: A328R: point mutation of SEQ ID NO:109 (protein)
# chain: B1 chain with V34Q, A328R
# modifications: Dicamba decarboxylase variant clone DC.4.032
# Legend:
# [1] = 14C assay: 14CO2 capture from [14C]-carboxyl-labeled dicamba with IPTG-induced recombinant E. coli cells; conditions: dicamba decarboxylation activity
# [2] = Dicamba decarboxylation activity of computationally designed protein variants and parents (Tables 4, 5); conditions: native proteins and designed variants; assay not specified
# [3] = 14C assay: 14CO2 capture from [14C]-carboxyl-labeled dicamba with purified protein; type: biochemical
# [4] = GC/MS detection of 2,5-dichloro phenol (2,5-DCP); kinetic determination; type: biochemical; conditions: purified protein, dicamba
# Protocol: The decarboxylated and demethylated product of dicamba, 2,5-dichloro phenol or 2,5-DCP (FIG. 1E) is measured using a GC/MS analytical procedure with either liquid injection after liquid/liquid extraction using toluene as the extraction solvent or gas injection using head space method. The head space sample analysis is carried out on an Agilent GC/MS system with a 6890A GC, a 5973N MSD and a CTC CombiPAL auto-sampler or with a 7890A GC, a 5975C MSD and an Agilent GC Sampler 80 auto-sampler with Phenomenex ZB-MultiResidue-1 column (30 m length, 0.25 mm diameter, 0.25 um film) or equivalent. GC/MS parameters are: GC inlet temperature, 200° C.; Carry gas, helium in constant flow mode (1.2 mL/min); Oven temperature program, 70° C. for 1 min and then ramp to 275° C. at 40° C./min. […] The reaction vial is transferred to a agitator for incubation at 90° C. for 4 min at 500 rpm. With a syringe preheated at 110° C., 1000 uL of head space is injected with sample fill speed at 100 uL/sec. A 2-mm diameter liner is used in sample inlet. The MS data acquisition is done in SIM (selected ion monitoring) mode. The positive ion at M/Z 162 for the molecular ion of 2,-5-DCP is monitored at retention time of 4.06 min. Solvent delay for MS acquisition is set at 3 min. GC/MS parameters for liquid sample analysis are the same as those for head space analysis, except that the volume of liquid injection is 1 uL.
# [5] = LC-MS/MS detection of 4-chloro-3-methoxy phenol; type: biochemical; conditions: purified protein, dicamba
# Protocol: The decarboxylated and chloro hydrolyzed product, 4-chloro-3-methoxy phenol (FIG. 1D), is measured using a LC-MS/MS analytical procedure. […] 10 ul is removed from the reaction mixture and mixed with 90 ul pre-chilled methanol followed by centrifugation at 14,000 rpm for 15 min at 4° C. 10 ul of the supernatant is then transferred into 170 ul ddH2O to achieve 5% methanol solution for injection. 50 ul of the prepared sample is injected into a 4000 Q Trap LC-MS/MS system for sample analysis. LC-MS/MS parameters are: Mobile Phase A, 2 mM ammonium acetate in water; Mobile Phase B, 2 mM ammonium acetate in methanol; Column, Aquasil, 100×2.1 mm, 3 μm, C18 column; Flow Rate, 0.6 ml/min. The MS/MS fragment 157/142 which is common to 4-chloro-3-methoxy phenol, 2-chloro-5-methoxy phenol, and 3-chloro-5-methoxy phenol is monitored at a retention time of 2.88 min.
# [6] = Saturation mutagenesis of SEQ ID NO:109: dicamba decarboxylation activity of point mutants (Table 7)
# [7] = dicamba decarboxylation activity of point mutants of SEQ ID NO: 109 from NNK saturation mutagenesis, 0.7-fold used as cut-off
# [8] = point mutant of SEQ ID NO:109, dicamba decarboxylation activity relative to the unchanged template
Molecule,"Average Activity (Fold of SEQ ID NO: 109) [6, 7]","Average Activity (Fold of SEQ ID NO: 109) [6, 8]",other results
B1,–,–,"Enzymatic Detection level [1]: High; dicamba decarboxylase activity (statement in the description) [2]: displays an increase in dicamba decarboxylase activity; CO2 product detected [3]: detected; 2,5-DCP product detected [4]: detected; 4-chloro-3-methoxy phenol product detected [5]: detected"
B2,–,–,"Enzymatic Detection level [1]: High; dicamba decarboxylase activity (statement in the description) [2]: displays an increase in dicamba decarboxylase activity; CO2 product detected [3]: detected; 2,5-DCP product detected [4]: detected; 4-chloro-3-methoxy phenol product detected [5]: detected"
B3,2.0 Fold of SEQ ID NO: 109,–,–
B4,2.0 Fold of SEQ ID NO: 109,2.0 Fold of SEQ ID NO: 109,–
B5,3.1 Fold of SEQ ID NO: 109,3.1 Fold of SEQ ID NO: 109,–
B6,2.0 Fold of SEQ ID NO: 109,–,–
B7,2.4 Fold of SEQ ID NO: 109,2.4 Fold of SEQ ID NO: 109,–
B8,2.0 Fold of SEQ ID NO: 109,–,–
B9,2.8 Fold of SEQ ID NO: 109,2.8 Fold of SEQ ID NO: 109,–
B10,2.2 Fold of SEQ ID NO: 109,2.2 Fold of SEQ ID NO: 109,–
B11,2.0 Fold of SEQ ID NO: 109,–,–
B12,2.3 Fold of SEQ ID NO: 109,2.3 Fold of SEQ ID NO: 109,–
B13,3.0 Fold of SEQ ID NO: 109,–,–
